Results taken from publication PMC6901390, “Cell-Free Enzymatic Conversion of Spent Coffee Grounds Into the Platform Chemical Lactic Acid” (Frontiers in Bioengineering and Biotechnology, 2019).

B1: LDH (Geobacillus stearothermophilus) (protein)
chain: MKNNGGARVVVIGAGFVGASYVFALMNQGIADEIVLIDANESKAIGDAMDFNHGKVFAPKPVDIWHGDYDDCRDADLVVICAGANQKPGETRLDLVDKNIAIFRSIVESVMASGFQGLFLVATNPVDILTYATWKFSGLPHERVIGSGTILDTARFRFLLGEYFSVAPQNVHAYIIGEHGDTELPVWSQAYIGVMPIRKLVESKGEEAQKDLERIFVNVRDAAYQIIEKKGATYYGIAMGLARVTRAILHNENAILTVSAYLDGLYGERDVYIGVPAVINRNGIREVIEIELNDDEKNRFHHSAATLKSVLARAFTR
notes: synthetic gene, His-tagged, pETDuet-1, expressed in E. coli BL21 (DE3), Ni-NTA purified
B2: KDGA (Thermoplasma acidophilum DSM 1728) (protein)
chain: MYKGIVTPMITPMGQNGEIDYRATEILIDNLADFGVDGLFPMGSTGLFPMFSTDEKKKFLGFVRDHSKKIEVYAGVGSSSTQESVELSKYTEDIGIKVRVLMPTYYIKPDEDWMYRHFSTVISAASNDLFIYNIPQLSGSWISESLIEKLTREFSNVKGIKDSSGDMRFFSRIIRHKNEKFDIFQGQDDLLFLSLSIGASGGVCGLSNISPYITNLYHEFSAGNLEKARKIQIDEVNPLMYAINEATFPAGYYYAFYKMNGIKGGYRAPMVEPTTDQKKKIDQELTKIPKKQ
notes: His-tagged, pProEX HTc, expressed in E. coli BL21-CodonPlus (DE3)-RIL, Ni-NTA purified

Columns and labels:
Test in all cases: purified protein
purified protein [1] = substrate: CC(=O)C(=O)O; type: biochemical, Geobacillus stearothermophilus; conditions: 0.2 mM NADH, 20 mM sodium phosphate pH 7.0, 50 °C, 0-50 mM pyruvate
purified protein [2] = substrate: CC(=O)C(=O)O; type: biochemical, Thermoplasma acidophilum; conditions: pyruvate and D-glyceraldehyde varied together (0.5-40 mM), one combined Km, 20 mM sodium phosphate pH 7.0, 50 °C
purified protein [3] = substrate: O=C[C@H](O)CO; conditions: pyruvate and D-glyceraldehyde varied together (0.5-40 mM), one combined Km, 20 mM sodium phosphate pH 7.0, 50 °C

Protein	Km (purified protein [1]) [mM]	Vmax (purified protein [1]) [µmol/min/mg]	kcat (purified protein [1]) [s⁻¹]	kcat/Km (purified protein [1]) [M⁻¹ s⁻¹]	Km (purified protein [2]) [mM]	Vmax (purified protein [2]) [µmol/min/mg]	kcat (purified protein [2]) [s⁻¹]	kcat/Km (purified protein [2]) [M⁻¹ s⁻¹]	Km (purified protein [3]) [mM]	Vmax (purified protein [3]) [µmol/min/mg]	kcat (purified protein [3]) [s⁻¹]	kcat/Km (purified protein [3]) [M⁻¹ s⁻¹]
B1	10.95 ± 1.67	194	117	10600								
B2					8.07 ± 1.29	17	10.5	1300	8.07 ± 1.29	17	10.5	1300
